From paper PMC7835374 (2021)

Target: recombinant full-length hemagglutinin H6 (A/Taiwan/2/2013) (influenza A virus H6N1 (A/Taiwan/2/2013))
Experiment: BLI

B1: 3I14^D93N IgG1 (antibody, V domains shown)
VH: QVQLLESGGGVVQPGRSLRLSCAASGFTFSNYGMHWVRQAPGKGLEWVAIISFDGSKKYYANSVKGRSTISRDNSKNTLSLQMNSLGPEDTALYYCAKLPSPYYFDSRFVWVAASAFHFWGQGILVTVSS
VL: LTQPPSASGTPGQRVTISCSGSSSNIGGNTVHWFQQLPGTAPKLLIYTNSLRPSGVPDRFSGSKSGTSASLAISGLQSEDEADYYCAAWDNSLNGQVFGGGTKLTVL
Kd: 0.4 nM
